Assay results reported in PMC10054699 (Vaccines, 2023).

Molecular target: the molecule itself
Assay: SEC; Superdex 200 column; purified F1

B1: polymeric F1 protein (F1 capsular antigen of Yersinia pestis) (natural protein)
chain: ADLTASTTATATLVEPARITLTYKEGAPITIMDNGNIDTELLVGTLTLGGYKTGTTSTSVNFTDAAGDPMYLTFTSQDGNNHQFTTKVIGKDSRDFDISPKVNGENLVGDDVVLATGSQDFFVRSIGSKGGKLAAGKYTDAVTVTVSNQ
notes: also called PolyF1; polyF1
B1: binds.
